# According to the nanobody polyreactivity screen of Harvey et al. (2022):
# Assay: yeast display, Sf9 membrane polyspecificity reagent, FACS + sequencing; frameworks hold sequencing errors
# In short: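 Nanobodies from a synthetic yeast display library (Saccharomyces cerevisiae BJ5465), induced 36–48 hours with galactose, were stained 1 hour at 4 °C with 10% biotinylated, detergent-solubilized Sf9 membrane reagent, enriched on streptavidin microbeads, then FACS-sorted. Anti-HA (expression) and streptavidin (reagent binding) fluorescence set low and high (top ~1%) gates. Polyreactivity labels come from the gate of origin. Genes were colony-PCR amplified, MiSeq 2 × 250 sequenced and filtered by CDR length.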
row,Sequence,polyreactivity (PSR sort gate)
1,QVQLVESGGGLVQAGGSLRLSCAASGFIFVQYAMGWYRQAPGKERELVAAISKGGGSTYYADSVKGRFTISRDNAKNTVYLQMNSLKPEDTAVYDCNADKVTRVTYWDDSWGQGTQVTVSS,high polyreactivity
2,QVQLVESGGGLVQAGGSLRLSCAASGFIFVRYAMGWYRQAPGKERELVAAITKGGGRTYYADSVKGRFTISRDNAKNTVYLQMNSLKPEDTAVYYCATAGAHGRERDYWGQGTQVTVSS,high polyreactivity
3,QVQLVESGGGLVQAGGSLRLSCAASGFIFVSKAMGWSRQAPGKERELVAAITTGGSTNYADSVKGRFTISRDNAKYTVYLLMNSLKPEDTAVYYCAADGRYSTYIYLHDYWGQGTQVTVSS,low polyreactivity
4,QVQLVESGGGLVQAGGSLRLSCAASGFIFVSYAMGWDRQAPGKERELVATITWGGGSTYYADSVKGRFTISRDNAKNTVYLQMNSLKPVDTAVYYCAADYPYSPIFDRYVEYEYWGQGTQVTVSS,low polyreactivity
5,QVQLVESGGGLVQAGGSLRLSCAASGFIFVWYAMGWYRQAPGKEREMVAAISFSGSSTYYADSVKGRFTITRDNAKNTVYLQMNSLKPEDTAVYYCAKRIAKYIPRYKFDYWGQGTQVTVSS,high polyreactivity
6,QVQLVESGGGLVQAGGSLRLSCAASGFIFVYNAMGWYRQAPGKERELVAVISSGGSTYYADSVKGRFTISRDNAKNTVYLQMNSLKPEDTAVYYCNKRRYDIKDEYDYWGQGTQVTVSS,low polyreactivity
7,QVQLVESGGGLVQAGGSLRLSCAASGFIFWDNTMGWYRQAPGKERELVAAISGGDGTYYADSVKGRFTISRDNAKNTVYLQLNSLKPEDTAVYYCNAATAEVKLYGKYDYWGQGTQVTVSS,low polyreactivity
8,QVQLVESGGGLVQAGGSLRLSCAASGFIFWDYAMGWNRQAPRKERELVAAISDSGGDTYYADSVKGRFTISRDNAKNTVYLQMNSLIPEDTAVYYCAADVVLWVFRGQQYDYWGQGTQVTVSS,low polyreactivity
9,QVQLVESGGGLVQAGGSLRLSCAASGFIFWINAMGWYRQAPGKERELVAAITKNGGTTYYADSVKGRFTISRDNAKNTVYLLMNSLKPEDTAVYYCAAGGIGGDQEVEGPMNYWGQGTQVTVSS,low polyreactivity
10,QVQLVESGGGLVQAGGSLRLSCAASGFIFWLNAMGWYRQAPGKERELVAAISIGGRTNYADSVKGRFTISRDNAKNTVYLQMNSLKPEDTAVYYCNKDYRSVYKGRGFDYWGQGTQVTVSS,low polyreactivity
11,QVQLVESGGGLVQAGGSLRLSCAASGFIFWLYAMGWYRQAPGKEREVVAGITRGGGSTYYADSVKGRFTISRDNAKNTVYLQMNSLKPEDTAVYYCAADAWSSYLDRPFDYWGQGTQVTVSS,high polyreactivity
12,QVQLVESGGGLVQAGGSLRLSCAASGFIFWLYPMGWYRQAPGKERELVAAISSSGGNTYYADSVKGRFTISRDNAKNTVDLQMISLKPEDTAVYYCAASYSYGRTYSGYYWGQGTQVTVSS,low polyreactivity
13,QVQLVESGGGLVQAGGSLRLSCAASGFIFWRNAMGWYRQAPGKEREFVARISSSGGSTYYADSVKGRFTISRDNAKNTVYLQMNSLKPEDTAVYYCNADVWYRYGYFRYDYWGQGTQVTVSS,high polyreactivity
14,QVQLVESGGGLVQAGGSLRLSCAASGFIFWSYAMGWYRQAPGKERELVAAITRRGGSTYYADSVKGRFTISRDNAKNTVYLQMNSLKPEDTAVYYCNARRTYNGPVYPYYSGVNYWGQGTQVTVSS,high polyreactivity
15,QVQLVESGGGLVQAGGSLRLSCAASGFIFWSYAMVWYRQAPGKERELVAAISHGGSTNYADSVKGRFTISRDNSKNTVYLQMNSLKPEDTAVYYCAKDELYIPGVWPYYEYDYWGQGTQVTVSS,low polyreactivity
16,QVQLVESGGGLVQAGGSLRLSCAASGFIFWTYAMGWYRQAPGKERELVAAITGGGGTTYYADSVKGRFTISRDTAKNTVYLQMNSLKPEDTAVYYCAAKQYRSRSGGYWGQGTQVTVSS,high polyreactivity
17,QVQLVESGGGLVQAGGSLRLSCAASGFIFWVYAMGWYIQAPGKERELVAAITSGGGSTYYADSVKGRFTISRDNAKNTVYIQMNSLKPDDTAVYYCATRIRTVAYNYWGQGTQVTVSS,high polyreactivity
18,QVQLVESGGGLVQAGGSLRLSCAASGFIFWWYNMGWYRQAPGKERELVAAISGSGGSTYYADSVKGRFTISRDNAKNTVYLQMNSLKPEHTAVYYCAALFGTGQFYYRYDYWGQGTQVTVSS,high polyreactivity
19,QVQLVESGGGLVQAGGSLRLSCAASGFIFWYNAKGWYRQAPGKERELVAAISSGGSTHYADSVKGRFTISRDNAKNTVYLLMNSLKPEDTAVYYCNTDGYHSNRLDDYDYWRQGTQVTVSS,low polyreactivity
20,QVQLVESGGGLVQAGGSLRLSCAASGFIFWYNAMGWYRQAPGKERELVAVISTSGTITYYADSVKGRFTISRDNAKNTVYLQMNSLKPEDTAVYYCAARYYQRANGFGYWGQGTQVTVSS,low polyreactivity
21,QVQLVESGGGLVQAGGSLRLSCAASGFIFWYYALGWYRQAPGKERELVAAISARDGSTYYADSVKGRFTISRDNAKNTVYLQMNSLKPEDTAVYYCNAVQRYPKFRMDYWGQGTQVTVSS,low polyreactivity
22,QVQLVESGGGLVQAGGSLRLSCAASGFIFWYYGMGWYRQAPGKERELVAAINWSGTSTNYADSVKGRFTISRDNAKNTVYLQMNSLKPEDTAVYYCAAEYWYTYSWGQGTQVTVLS,low polyreactivity

row,Sequence,polyreactivity (PSR sort gate)
1,QVQLVESGGGLVQAGGSLRLSCAASGFIFYAMGWYRQAPGKERELVAAITLSDGTTYYADSVKGRFTISRDNAKNTVYLQMNSLKPEDTAVYYCAAEYSVPYRGWDGYEYWGQGTQVTVSS,low polyreactivity
2,QVQLVESGGGLVQAGGSLRLSCAASGFIFYAYAMGWYRQAPGKERELVPAISRRGGSTYYADSVKGRFTISRDNAKNTVYLQMNSLKPEDTAVYYCARDWTLGRSGPKYGYWGQGTQVTVSS,high polyreactivity
3,QVQLVESGGGLVQAGGSLRLSCAASGFIFYDYTMGWYRQAPGKERELVAAISSRGGSTYYADSVKGRFTISRDNAKNTVYLQMNSLKPEDTAVYYCAAYWSQQTYEYWGQGTQVTVSS,high polyreactivity
4,QVQLVESGGGLVQAGGSLRLSCAASGFIFYEYAMGWYRQAPGKERELVAAISSGGDTNYADSVKGRFTISRDNANNTVYLQMNSLKPEDTAVYYCAKDYSDPGWAEYDYWGQGTQVTVSS,low polyreactivity
5,QVQLVESGGGLVQAGGSLRLSCAASGFIFYEYAMGWYRQAPGKERELVARITRSDGSTYYADSVKGRFTISRDNAKNTVYFQMNSLKPEDTAVYYCNVRRAYYRRGPYYSTYYYWGQGTQVTVSS,high polyreactivity
6,QVQLVESGGGLVQAGGSLRLSCAASGFIFYGNAMGWYRPAPGKERELVAAIRWNGGRTYYADSVKGRFTISRDNAKNTVYLQMNSLKAEDTAVYYCAARISQLKYGYWGQGTQVTVSS,high polyreactivity
7,QVQLVESGGGLVQAGGSLRLSCAASGFIFYGNAMGWYRQAPGKVRELVAGISRSGGSTYYADSVKGRFTISRDNAKNTVSLQMNSLKPEDSAVYYCAASYWHRRYDYWGQGTQVTVSS,high polyreactivity
8,QVQLVESGGGLVQAGGSLRLSCAASGFIFYGYAMGWSRQAPGKERELVAAIRYSGTSTYADSVKGRFTISRDNAKNTVYLQMNSLKPEDTAVFYCAKKYLYYGVPSYKYWGQGTQVTVSS,high polyreactivity
9,QVQLVESGGGLVQAGGSLRLSCAASGFIFYGYAMGWYRQAPGKERELVAGISTGGSTNYADSVKGRITISRDNAKNTVYLQMNSLKPEDTAVYYCAVVDVEEHVGHWGQGTQVTVSS,low polyreactivity
10,QVQLVESGGGLVQAGGSLRLSCAASGFIFYGYAMGWYSQAPGKERELVAGISTGGSTNYADSVKGRFTISRDNAKNTVYLQMNSLKPEDTAVYYCAKRAYFYYGRYDYWGQGTQVTVSS,low polyreactivity
11,QVQLVESGGGLVQAGGSLRLSCAASGFIFYHYAIGWYRQEPGKERELVAAISGRGGSTYYADSVKGRFTISRDNAKNSVYLQMNSLKPEDTAVYYCSTDYSRTFDYWGQGTQVTVSS,high polyreactivity
12,QVQLVESGGGLVQAGGSLRLSCAASGFIFYINAMGWYRQAPGKERELVAAISTSGGSTYYADSVKGRFTISRDNAKNTVYLQMNSLKPEDSAVYYCAAEGSYWYYSYDYWGQGTQVTVSS,high polyreactivity
13,QVQLVESGGGLVQAGGSLRLSCAASGFIFYKNAMGWYRQAPGKERELVAAISRRGSSTYYADSVKGRFTISRDNAKNTVYLQMNSLKPEDTAVYYCAADSHIDHGKWAYDYWGQGTQVTVSS,high polyreactivity
14,QVQLVESGGGLVQAGGSLRLSCAASGFIFYKNAMGWYRQAPGKERELVAISSSGGSTYYADSVKGRFTISRDNAKNSVYLQMNSLKPEDTAVYYCADRSRRYRGGYWGQGTQVTVSS,high polyreactivity
15,QVQLVESGGGLVQAGGSLRLSCAASGFIFYKYAMGWYRQAPGKEREFVAAITWSGGNTYYADSVKGRFTISRDNAKNTVYLQMNSLKPEDTAVYYCAARDSKWGQGTQVTVSS,low polyreactivity
16,QVQLVESGGGLVQAGGSLRLSCAASGFIFYKYAMGWYRQAPGKERELVARISISGGRTYYADSVKGRFTISRDNAKNTVYLQMNSLKPEDTAVYYCATSPWWYGYAAYGMDYWGQGTQVTVSS,low polyreactivity
17,QVQLVESGGGLVQAGGSLRLSCAASGFIFYLNAMGWSRKAPGKERELVAAISSSGGRTYYADSVKGRFTISRDNAKNTVYFQMNSLKAEDTAVYYCNAVTLYRSRTDGYWGQGTQVTVSS,high polyreactivity
18,QVQLVESGGGLVQAGGSLRLSCAASGFIFYLYTMGWYRQAPGKERELVAAITKSGTRTYYADSVKGRFTISRDNAKNTVYLQMNSLKPEDTAVYYCAAEWGSSYRWGMDYWGQGTQVTVSS,high polyreactivity
19,QVQLVESGGGLVQAGGSLRLSCAASGFIFYLYTMGWYRQAPGKERELVAAITRSGGTYYADSVKGRFTISRDNAKNTVYLQMNSLKPEDTAVYYCNADDYEGYYYWGQGTQVTVSS,low polyreactivity
20,QVQLVESGGGLVQAGGSLRLSCAASGFIFYPYAMGWYRQAPGKERELVAVITSGGRTYYADSVKGRFTISRDNAKNTVYLQMNSLKPEDTAVYYCAARYGRIHWKANWPEYGYWGQGTQVTVSS,low polyreactivity
21,QVQLVESGGGLVQAGGSLRLSCAASGFIFYPYAMGWYRQAPGKERELVAVITSGGRTYYADSVKGRFTISRDNAKNTVYLQMYSLKPEDTAVYYCNADTFQWWDIADVYVIVKYGYWGQGTQVTVSS,low polyreactivity
